Reference: publication PMC3303827

Columns and labels:
[1] = biological target: U266 derived IgE λ light chain (dimer) (human (endogenous in U266)); assay: SEC; Superdex 75 10/300 GL; 1 g/L light chain in 20 mM HCl pH 2.0; mobile phase 100 mM Na2SO4, 25 mM Na2HPO4 pH 7.4; calibrated with BSA, chymotrypsinogen A, lysozyme
[2] = biological target: U266 derived IgE λ light chain (dimer) (human (endogenous in U266)); assay: SEC; Superdex 75 10/300 GL; 1 g/L light chain in 25 mM PBS pH 7.4; mobile phase 100 mM Na2SO4, 25 mM Na2HPO4 pH 7.4; calibrated with BSA, chymotrypsinogen A, lysozyme
[3] = biological target: U266 derived IgE λ light chain (dimer) (human (endogenous in U266)); assay: ESI-Qq-TOF mass spectrometry; nano-spray; sample in 20 mM HCl pH 2.0 (methods say pH 2.7); spectra deconvoluted by MaxEnt
[4] = biological target: U266 derived IgE λ light chain (dimer) (human (endogenous in U266)); assay: ESI-Qq-TOF mass spectrometry; nano-spray; sample in 25 mM PBS pH 7.4; spectra deconvoluted by MaxEnt

stoichiometry N [1]: 2 | stoichiometry N [2]: 2 | stoichiometry N [3]: 2 | stoichiometry N [4]: 2
Substance: U266 derived IgE λ light chain (dimer) (natural protein)
